Data as given in the domain aggregation screens of Martell et al. (2025).

Test: soluble fraction after stress (log2 fold change); higher = more stays soluble; pooled small domains, quantitative proteomics
Conditions: stress: pH 4
Summary of the method: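 Custom libraries of small protein domains were pooled and exposed to pH 4. High-throughput quantitative proteomics then measured the log2 fold change in the amount of each domain still soluble, with higher values meaning more stayed soluble. This soluble-fraction fold change stands for aggregation propensity.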

HMDVALEALDESDGAVRLQFSGALQTYLNDSTTAASLEAISKTFRAFYEAAGRPVDTLEVYAAGEPVT
soluble fraction (log2): -0.42

HMDVDKQLDQLLAAMIPDKSLRQTIKTKAFNELVDNELADKDISSWTKQTMDVFMTRAEDMFGAM
soluble fraction (log2): -1.43

HMDVEMLIDKYQLNDSEAEVLRFMKKNRQSLKTIGIRDVAKATYVSTATIINMAKKIGYSGYSELVFALGN
soluble fraction (log2): -0.319

HMDVNAQAGYDKLQSNQLDGARHDYEQALKTDPNNVDTLLALAAIAQRQGRSADADGYRQRAIDAD
soluble fraction (log2): -0.245

HMDVNHVIIDHKGNSIQAIIDSIDLDNVYYQSKIKKESEVIDIDKVYFIFNDFDRVYHYDWSYYENL
soluble fraction (log2): -0.468

HMDVNLSIRSGETIGIIGSTGSAKSTLVQLIPRLYDTTEGEVLVGGVNVKNYDLEALRNSVAMVLQKN
soluble fraction (log2): -0.155

HMDVPNLVGEEIKDVRRTLRHFQLEVIGEGSKIVSQVPKHGQRLPENTTIRVYLN
soluble fraction (log2): -0.0434

HMDVPNLVGKTLEEAENELKKLNIRYNVTERADEAPKDTVIEQSPKPYEAMEPGTVVNLVISSGPA
soluble fraction (log2): -0.912

HMDVQPHIYLRKLDQFWPADLHSLILYTLDGRRLWSADSGNIPALPHRASSLVILEATWDNGQRTRRKQFL
soluble fraction (log2): -0.116

HMDVRKSISDLKALGLSDAAVTVYGTIGNKPVHIDKIVSELGIPVFKVLTALTQLEMKGLVTAMQGRMYVL
soluble fraction (log2): -0.168

HMDVSASEVGLTGRQTDVLSLMVKGRSNRDIAELLGLSEGTVKIHITAIFKALGVASRTQALVAAARLGLK
soluble fraction (log2): -0.212

HMDVSLVEQTQRDILEYISKNNSNAQLPKEQEFVGLLGVSRVVVREALSRLRALGIIETKRKKGTVVVVPE
soluble fraction (log2): -0.31

HMDWVAYGAELRRRRLLAGWSVAELSRRTNLSTSIIYQVEQARTRLRPSQLTLAKLAAALGMP
soluble fraction (log2): -0.0217

HMDYAQAQRQAESAIALRPDVERLRLLLIYALQKQGKLREAEQAAADAIKSGLDTPALRQARANLRP
soluble fraction (log2): -0.205

HMDYGSISFINWSIEVLSVIKTRLDRGDKIIDEVSGEKYTASSFEKFVRKNFSSYIFSQVYAEDHKK
soluble fraction (log2): -0.016

HMDYHTIQTGDKGDEVLRLQQALAEYGYYEGDLDGRFGQQTRRAVERFQYSHGLTADGIAGRNTLSVLYD
soluble fraction (log2): -0.051

HMDYIITHYPDNKRFETQVDGVVAFVQYRLSGDKLDIIHTIVPPAIGGRGIAAALVKYAYDYAIENGMK
soluble fraction (log2): -0.666

HMDYKSKLQELVQTEKRTVEYKLVDESGPAHNKSFTFEVVISGIKYGSGTGASKKIAEQNAAKEALEKLA
soluble fraction (log2): 0.144

HMDYKSTLQELVQTVKKSVTYEVIDEEGPSHNKTFTSIVKIDGIVMGKGTAGSKKASEQEAARDALSKR
soluble fraction (log2): -0.0966

HMDYLYHNGKEIDQGSIMYKMEDYSDGIFELQSAKYADGTELDEKELEELESTQELIDWVMIDFVS
soluble fraction (log2): -1.99

HMDYNSYGLTERELELVDYVLKGYSRKEMAEASGLKVNTIGSYMKKIYRKLNIHNRTELKERFI
soluble fraction (log2): -1.31

HMDYNYLVFVTNTGPRSIAVEDLEMTVSDGKLVVSSGADGETFDLSTLTKMYFSDAAVVSINDV
soluble fraction (log2): -1.14

HMDYQYILVDVKDRIATVTINRPEYSNAFARESYYEIADAMNTLGARDDVGVIVITGAGKHFSAGGDIKRF
soluble fraction (log2): -0.652

HMDYYKILGLSTSATLDQIKKAFRQLAIEFHPDKNPNNPTAEDKFQRISEAYAVLSNPEKRAEYDRSY
soluble fraction (log2): -0.17

HMEAAETAVVTGTIVNIRSGPTLDFEAFAQVKQGDRLPVLDKFYNWYYVKLPSGVNGWISGQLVRIEQ
soluble fraction (log2): -0.673

HMEAELNSLVKTYENMKPKAAAQVFEELDMDVLLDVVERMKEKKLAPILAQVTPTRAKEITYELTQRR
soluble fraction (log2): -0.0962

HMEAFDYLGRRTRDLLERQGWTTVPLVRDAYLAVPGGERLLQVPGFGRKSLREVRRWLWLQIGDPRFE
soluble fraction (log2): 0.114

HMEAIYKKNKNLIHTVIRDNFPFLIDTADYEDAFQEGSIGLIRAIDRFDDGLEYKFSSYAYTAIRNQIA
soluble fraction (log2): -0.165

HMEALGLSPRQVDVLRLLVEGRSNKMIMRELELSESTVKTHLQAIFRRLGVSSRTQAVVAAARLGL
soluble fraction (log2): -0.418

HMEALSAREIEILQALETGASNRELAKMLFISEATVKTHLVHIYQKLGVGTRTAAITEARERRV
soluble fraction (log2): -0.237

HMEANAYFDAYPDVAAEWARLSGSDEGKATLSAIGVTTPQQFAQYHYTTFGSKENRNAPVGYTP
soluble fraction (log2): -0.47

HMEANPLTDREKEVLELVADGKNTKEIAQELSIKSGTVRNYISMILEKLEVKNRIEAITRSKEKGWF
soluble fraction (log2): -0.025

HMEAPMPIFWRPQFRIGHDDIDADHRYLILLINTVELVLRFPDDPRNVELALTELRRYAEDHFEREER
soluble fraction (log2): 0.0123

HMEAQAHYDAIYKAHPNADSIAQSAEFKAWVDAQPSVVRNAYWQLFDPKEGGTAEQIVEVFDAFVKSS
soluble fraction (log2): -1.83

HMEDDIRSSIRTLDQFISKNQITLSKDVKNYILQLLSNDRMVTINELEKIKIYYDSNENIDLDTVKILLN
soluble fraction (log2): -1.4

HMEDEEILNEIRHTEQYVYYFGNYIMEHHVSRGLSKEKVIASLARELQIEIADIREDFDGMIEQIKTNILN
soluble fraction (log2): -0.416

HMEDESSIERYLGSGAIKGIGPSLAARIVKKFGKDTFRIIEQEPERLAEIKGISERKAMEISTLMEEK
soluble fraction (log2): 0.0126

HMEDGRLPPPGTVLRREYKGRAVFVRVLPKGFEFEGEVYRSLSAIAAKVTGSHWNGFRFFGLHE
soluble fraction (log2): 0.199

HMEDHMVVFGKGGRITRLPDKATVLEYLDAANFFASRSSVVKVNGKLASLDQTLRDGDSIEIVD
soluble fraction (log2): -0.473

HMEDINAVLAENLRRLRESRRLSLDAVARLTGVSKSMLGQIERGEVNPTVSTMWKIAGGLKVNFTALFRRE
soluble fraction (log2): ≥ 0.43

HMEDIQPSVIFQNNMIDGFKKFGVSFLQNRRNVNVNTLNGLASAGTYPKWQQLLVNKISYIDMLLSTGG
soluble fraction (log2): -0.137

HMEDKIIVTVPGEYHLERIDRFLAANLEEDLSRSLIQRYIRENLITVNGEAVRANYKVKTDDEILITFPQ
soluble fraction (log2): -1.04

HMEDLAERLDNLSTMYAKMDPVRAAQVLLESKNKSENIEVLKRLKPKSLGLILENMPPREAYDYVSELQ
soluble fraction (log2): 0.0298

HMEDLGYVKVASQTAAIRKSAAVQAGQIGTVHEGETYRYLGEEEGWYLVEYNGQKAYISWDDGEL
soluble fraction (log2): -0.553

HMEDMMKALLDVVRAQHTATEGSEERPFDINDIIDMALNITGRPEEPEEQQELSDTIQKLAESLAPDIFP
soluble fraction (log2): -0.596

HMEDNKLKNEIKNELVSHLEKPYSVEDLADALKYHGSAAFKLIVQELAILERERAVVVTHDGNFKINSS
soluble fraction (log2): -0.0181

HMEDPAVYYKILQIPPDASLSEIHRAFEKITSAWDPERYPHISSWKETSAKKLQEIRNAYEKLLILRETG
soluble fraction (log2): -0.00219

HMEDPFLWVEKLGSSDWIEREESAEKLLEAGEASVEALRTALTHPDLEVRERVRELLSVISPL
soluble fraction (log2): -1.82

HMEDPRVTEIKNLQQDLAKKFKPTQGPASASDAVERVTAITTVMTKVAALPEDLRSEAMQPGKKM
soluble fraction (log2): -0.0985

HMEDQFWQNRAEMALASARRAGRIVTYAEMADAADIPAPQRIHKLTLWLEATMRQDHASGQPLRAALV
soluble fraction (log2): -0.0778

HMEDQITNQQFTMTKQSILDLLVKKSYPPYELANELHLKKEEVLPIIRFLIAENEIHFKDGMLHLPH
soluble fraction (log2): -0.0688

HMEDQLDSLKDIIYDYLENNELYYNDLQEFKKIIIENMEFIHPNLNHKLIDNNFFKLINFKLEYNF
soluble fraction (log2): -0.828

HMEDSSSILNRMRKLIALLNRASEAYYKENKEIISNFEYDRLYDELLGLESRSNTVLSGSPTYKV
soluble fraction (log2): -1.21

HMEDTFEYPVSVNGKLRFKIELPVSMEKDEIRNIVLNDERAKKWLATGTLTNLIVVPNRIINIVIK
soluble fraction (log2): 0.0025

HMEDTSTLSIKHKIKELINQESPQAILSDDKLVELLAAQGIKIARRTIAKYRETMNIPTSAERKRQKRPP
soluble fraction (log2): 0.275

HMEDVTLSLVVGEDLDGERLDVFLTWKLDRTRSQVQALIRDGKVRLEQGQRARPSMVVRSGMGISVSLEPR
soluble fraction (log2): -1.11

HMEDYYKILGVSKDASIDDIKKSYRKLSLQNHPDRNKSPQASENFAKINSAYEVLSDQRKKRQYDMQQSM
soluble fraction (log2): ≥ 0.43

HMEEAQWEFKWENTDSAEIHGPHSSSEMLKWQENSFFAKGVYVRKVGGDTTDFTDGKRIDFDLY
soluble fraction (log2): -1.69

HMEEDPILVAQRFLNIFRQLHIFDQQRREEFNSMILALPPEIRGTFGVLPGGSVLQEYVDELEISKGMA
soluble fraction (log2): -1.33

HMEEDPVISQAQRQALFKLAHDHFGQEEGNKVILRLIGEHGLRSTTNMTASVYKTVTDALIQVIESMVEG
soluble fraction (log2): -0.444

HMEEEDELALFLREERKNYDLTLTDVHEKTGIPQKVLKEFQWGDAQLTDRQRYTLTQYVEEAREYFQENA
soluble fraction (log2): -0.998

HMEEEVKVPKIKGLTEAEAKAKLKSEGLESGTARSAYSDTVEEGHIISQSIQEGTKVPKGTAVSYEVSKGK
soluble fraction (log2): 0.22

HMEEGKVKRMAMDMVDAFYDKVSAMVDDNNDLGRSVVDAWDDEEENPPEYMLDDETRAILVNAGKIEPE
soluble fraction (log2): 0.0884

HMEEHSLRKQEMLRIIEALEQLTPKEKTVVVLYYFKGVLFKDIAMLLDVTEGRISQLHTAAMGRLKKLMD
soluble fraction (log2): -0.632

HMEEIDLTPAEEILNKLPDNSRGYLIPTLNKIQNAYRFLPDPAMELLMEFFNVSRAEIFGVISFYPQLMI
soluble fraction (log2): -0.533

HMEEIPYGVISAKAGAAAYDYIKKSIELGIEKKIDGVATAPIQKEAIHMAGISYIGHTEMYQGIT
soluble fraction (log2): 0.0683

HMEEKEIGQTLSVKIRENVLSKLDMTRDLEDEEVKHIIEHEIWLAAKKHYISLEERNSIKRGIFNSL
soluble fraction (log2): -0.773

HMEELELTIDGEMVGRIDKQLGHHFDQFSRSQIQHWIEDGHVLVNGKQVKPKYKLLVGDHVQIIPEEPQK
soluble fraction (log2): 0.223
